Source: patent US20240133885A1
Values belong to the substance of their own block, whether it stands above or below them.

How the values were obtained:
[1] = biological target: CD20-GA10-(vL-vH)-MYC-BBz-T2A-PAC; assay: Luc assay, supernatant on Jurkat cells expressing the CAR (parental 484)
[2] = biological target: CD20-GA10-(vL-vH)-MYC-BBz-T2A-PAC; assay: Luc assay, supernatant on NK92MI cells expressing the CAR (parental 510)
[3] = biological target: HIV1 envelop glycoprotein gp120 (HIV1); assay: Luc assay, supernatant on HL2/3 cells expressing HIV1 gp120 (control 5700)
[4] = biological target: J6MO-(vL-vH)-MYC-28z-T2A-Pac; assay: NLuc assay, supernatant on NK92MI cells expressing the CAR (no CAR 89)
[5] = biological target: CD200R-huDx182-(vL-vH)-Myc-BBz-T2A-PAC; assay: NLuc assay, supernatant on 293FT cells transfected with the CAR
Amyloid [6] = assay: Luc assay, supernatant on BC-3 cells
Amyloid [7] = assay: Luc assay, supernatant on MM1S cells
Amyloid [8] = assay: Luc assay, supernatant on U266 cells
Amyloid [9] = assay: Luc assay, supernatant on BV173 cells
Amyloid [10] = assay: Luc assay, supernatant on JSC-1 cells
Amyloid [11] = assay: Luc assay, supernatant on BCBL-1 cells
Lym1 [12] = assay: Luc assay, supernatant on BC-1 cells
Lym1 [13] = assay: Luc assay, supernatant on BC-3 cells
Lym1 [14] = assay: Luc assay, supernatant on MM1S cells
Lym1 [15] = assay: Luc assay, supernatant on Raji cells
Lym1 [16] = assay: Luc assay, supernatant on U266 cells
Lym1 [17] = assay: Luc assay, supernatant on BV173 cells
Lym1 [18] = assay: Luc assay, supernatant on JSC-1 cells
Lym1 [19] = assay: Luc assay, supernatant on BCBL-1 cells
[20] = biological target: FMC63-(vL-vH)-Myc-BBz-T2A-Pac; assay: NLuc assay, supernatant on 293FT cells transfected with the CAR

Substance: CD8SP-HIV1-VR-C01-(vL-vH)-GGSG-NLuc-4xFLAG-x2STREP-8xHis-T2A-PAC (scFv)
- Mean Luc activity [3]: 9330

Substance: SP-Amyloid-158-(vL-vH)-GGSG-NLuc-4xFLAG-x2STREP-8xHis-T2A-PAC (scFv)
- Luc activity (Amyloid [6]): 3110
- Luc activity (Amyloid [7]): 8170
- Luc activity (Amyloid [8]): 3930
- Luc activity (Amyloid [9]): 6220
- Luc activity (Amyloid [10]): 8230
- Luc activity (Amyloid [11]): 5690

Substance: CD8SP-HIV1-3BNC117-(vL-vH)-GGSG-NLuc-4xFLAG-x2STREP-8xHis-T2A-PAC (scFv)
- Mean Luc activity [3]: 8870

Substance: CD8SP-HIV1-X5-(vL-vH)-GGSG-NLuc-4xFLAG-x2STREP-8xHis-T2A-PAC (scFv)
- Mean Luc activity [3]: 12900

Further lines, results first:

- Mean Luc activity [1]: 7610
- Mean Luc activity [2]: 1420
Substance: CD20-ECx2-ECD-GGSG-TurboLuc16-4xFlag-2xStreptag-8xHis-T2A-Pac (receptor)

- Mean Luc activity [4]: 602
Substance: BCMA-ECD-GGSG-NLuc-4xFlag-2xStreptag-8xHis-T2A-Pac (from UniProt Q02223 1-54) (receptor)

- Mean Luc activity [5]: 18700
Substance: CD200R-ECD-GGSG-NLuc-4xFlag-2xStreptag-8xHis-T2A-Pac (receptor)

- MEAN LUC ACTIVITY (Lym1 [12]): 7390
- Luc activity (Lym1 [13]): 11700
- MEAN LUC ACTIVITY (Lym1 [13]): 11700
- Luc activity (Lym1 [14]): 1580
- MEAN LUC ACTIVITY (Lym1 [14]): 1580
- MEAN LUC ACTIVITY (Lym1 [15]): 580000
- Luc activity (Lym1 [16]): 258
- MEAN LUC ACTIVITY (Lym1 [16]): 258
- Luc activity (Lym1 [17]): 5560
- MEAN LUC ACTIVITY (Lym1 [17]): 5560
- Luc activity (Lym1 [18]): 6770
- MEAN LUC ACTIVITY (Lym1 [18]): 6770
- Luc activity (Lym1 [19]): 7780
- MEAN LUC ACTIVITY (Lym1 [19]): 7780
Substance: CD8SP-Lym1(vL-vH)-GGSG-NLuc-AcV5 (scFv)

- Mean Luc activity [20]: 37800
Substance: SLAMF7-CS1-ECD-GGSG-NLuc-4xFlag-2xStreptag-8xHis-T2A-Pac (receptor)
